Assays:
Experiment in all cases: high-throughput RNA pulldown from lysate on Ni-NTA beads; HRP: 50 mM Tris pH 8, 150 mM NaCl, 1 mM beta-mercaptoethanol, 50 ug/ml BSA, 3 ug/ml yeast RNA, 0.5% heparin; ITC and FP: Tris pH 8, 200 mM KCl, 5% glycerol; MST: 50 mM Tris pH 8, 200 mM NaCl, 1 mM DTT, BSA, heparin, 0.05% Tween 20
Details in all cases: tags: N-terminal His-eGFP
[1] = target: T1, GFP-9S library array, motif 4 ND N98C;D124P (synthetic construct, N98C;D124P)
T1 chain: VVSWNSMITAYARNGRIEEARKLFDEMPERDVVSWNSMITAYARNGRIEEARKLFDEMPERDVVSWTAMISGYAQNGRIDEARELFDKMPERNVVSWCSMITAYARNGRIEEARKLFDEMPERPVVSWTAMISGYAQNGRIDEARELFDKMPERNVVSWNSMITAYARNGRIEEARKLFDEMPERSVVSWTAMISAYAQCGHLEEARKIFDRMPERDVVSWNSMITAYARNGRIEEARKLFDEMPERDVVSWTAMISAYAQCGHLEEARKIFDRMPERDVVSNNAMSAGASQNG

[2] = target: T2, GFP-9S library array, motif 4 ND N98I;D124L (synthetic construct, N98I;D124L)
T2 chain: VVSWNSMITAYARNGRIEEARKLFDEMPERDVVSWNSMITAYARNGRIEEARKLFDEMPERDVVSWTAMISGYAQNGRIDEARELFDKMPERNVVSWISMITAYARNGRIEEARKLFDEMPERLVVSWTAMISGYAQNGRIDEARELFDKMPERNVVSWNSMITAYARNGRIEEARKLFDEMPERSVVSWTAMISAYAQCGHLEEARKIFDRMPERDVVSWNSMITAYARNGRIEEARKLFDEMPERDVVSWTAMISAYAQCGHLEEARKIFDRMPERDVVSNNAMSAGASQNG

[3] = target: T3, GFP-9S library array, motif 4 ND N98H;D124T (synthetic construct, N98H;D124T)
T3 chain: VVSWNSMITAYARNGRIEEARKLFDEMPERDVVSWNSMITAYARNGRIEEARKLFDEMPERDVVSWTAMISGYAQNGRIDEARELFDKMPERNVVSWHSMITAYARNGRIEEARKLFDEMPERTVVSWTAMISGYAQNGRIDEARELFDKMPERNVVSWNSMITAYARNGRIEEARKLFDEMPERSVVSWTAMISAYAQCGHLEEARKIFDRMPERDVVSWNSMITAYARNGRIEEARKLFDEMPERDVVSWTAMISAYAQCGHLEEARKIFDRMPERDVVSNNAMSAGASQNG

[4] = target: T4, GFP-9S library array, motif 4 ND N98C;D124V (synthetic construct, N98C;D124V)
T4 chain: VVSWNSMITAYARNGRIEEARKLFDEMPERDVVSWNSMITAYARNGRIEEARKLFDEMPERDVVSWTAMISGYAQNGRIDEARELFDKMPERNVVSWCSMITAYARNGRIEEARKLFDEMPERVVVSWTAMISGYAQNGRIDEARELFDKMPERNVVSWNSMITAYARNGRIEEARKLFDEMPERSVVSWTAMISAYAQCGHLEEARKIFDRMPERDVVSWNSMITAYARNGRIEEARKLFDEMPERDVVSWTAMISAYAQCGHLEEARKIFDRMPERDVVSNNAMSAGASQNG

[5] = target: T5, GFP-9S library array, motif 4 ND N98F;D124L (synthetic construct, N98F;D124L)
T5 chain: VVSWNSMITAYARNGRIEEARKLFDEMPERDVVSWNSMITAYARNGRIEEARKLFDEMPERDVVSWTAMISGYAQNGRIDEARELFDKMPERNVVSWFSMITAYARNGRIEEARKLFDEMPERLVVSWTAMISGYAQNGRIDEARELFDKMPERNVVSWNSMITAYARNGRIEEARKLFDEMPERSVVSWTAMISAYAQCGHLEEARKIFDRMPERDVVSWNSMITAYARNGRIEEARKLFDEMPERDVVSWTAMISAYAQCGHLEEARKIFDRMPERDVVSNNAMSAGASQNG

| Binder | Kd ([1]; label: 5' Cy5) [nM] | Kd ([2]; label: 5' Cy5) [nM] | Kd ([3]; label: 5' Cy5) [nM] | Kd ([4]; label: 5' Cy5) [nM] | Kd ([5]; label: 5' Cy5) [nM] | Kd ([1]; label: 5' IRDye 800CW) [nM] | Kd ([2]; label: 5' IRDye 800CW) [nM] | Kd ([3]; label: 5' IRDye 800CW) [nM] | Kd ([4]; label: 5' IRDye 800CW) [nM] | Kd ([5]; label: 5' IRDye 800CW) [nM] |
| --- | --- | --- | --- | --- | --- | --- | --- | --- | --- | --- |
| AUUAGACGUGA (ssRNA) [Cy5-rpoA-G] | 321 | 128 | 75 | 124 | 90.2 | – | – | – | – | – |
| AUUACACGUGA (ssRNA) [Cy5-rpoA] | 272 | 106 | 50.9 | 130 | 76.3 | – | – | – | – | – |
| AUUAAACGUGA (ssRNA) [IR-rpoA-A] | – | – | – | – | – | 263 | 343 | 103 | 98.1 | 232 |
| AUUAUACGUGA (ssRNA) [IR-rpoA-U] | – | – | – | – | – | 351 | 202 | 24.9 | 167 | 166 |

From publication PMC8809517, “Cofactor-independent RNA editing by a synthetic S-type PPR protein”
